Measured values as given in PMC3702667.

Target: RNA polymerase II;RECQL5 1-620 D157A (human;human, UniProt P24928;P30876;P19387;O15514;P19388;P61218;P62487;P52434;P36954;P62875;P52435;P53 …, |D157A)
Assay: cryo-EM

Chain of RNA polymerase II;RECQL5 1-620 D157A (O94762 1-620 D157A, one chain of several): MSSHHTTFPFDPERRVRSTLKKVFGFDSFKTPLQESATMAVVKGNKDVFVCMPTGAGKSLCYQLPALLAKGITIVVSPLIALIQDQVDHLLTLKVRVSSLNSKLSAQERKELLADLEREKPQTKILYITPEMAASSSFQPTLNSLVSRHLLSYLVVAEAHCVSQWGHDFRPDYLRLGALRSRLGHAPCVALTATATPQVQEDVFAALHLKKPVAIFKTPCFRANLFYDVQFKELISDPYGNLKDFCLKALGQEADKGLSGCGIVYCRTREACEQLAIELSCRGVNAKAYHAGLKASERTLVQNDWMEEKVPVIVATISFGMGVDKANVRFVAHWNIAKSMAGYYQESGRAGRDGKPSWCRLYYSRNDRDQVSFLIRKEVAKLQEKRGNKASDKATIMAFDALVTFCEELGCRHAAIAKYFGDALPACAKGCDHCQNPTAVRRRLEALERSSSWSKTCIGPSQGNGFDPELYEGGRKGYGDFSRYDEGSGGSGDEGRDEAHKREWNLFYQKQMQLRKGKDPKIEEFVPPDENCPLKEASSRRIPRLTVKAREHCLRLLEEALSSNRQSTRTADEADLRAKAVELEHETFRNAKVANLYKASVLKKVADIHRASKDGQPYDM

B1: artificial transcription bubble (template DNA, nontemplate DNA, RNA) (mixed)
DNA 1: CTCAAGTACTTACGCCTGGTCATTACTA
DNA 2: TAGTAAACTAGTATTGAAAGTACTTGAGCTTAGACAGCATGTC
RNA: UAUAUGCAUAAAGACCAGGC
B1: binds.
